Test results from publication PMC10786891, “Massively parallel profiling of RNA-targeting CRISPR-Cas13d”.
Where a chain is given by its changes, count along the chain named. Names may count otherwise.

Molecular target: T1, EsCas13d, nuclease-dead (Eubacterium siraeum, UniProt B0MS50, R295A;H300A;R849A;H854A)
T1 sequence: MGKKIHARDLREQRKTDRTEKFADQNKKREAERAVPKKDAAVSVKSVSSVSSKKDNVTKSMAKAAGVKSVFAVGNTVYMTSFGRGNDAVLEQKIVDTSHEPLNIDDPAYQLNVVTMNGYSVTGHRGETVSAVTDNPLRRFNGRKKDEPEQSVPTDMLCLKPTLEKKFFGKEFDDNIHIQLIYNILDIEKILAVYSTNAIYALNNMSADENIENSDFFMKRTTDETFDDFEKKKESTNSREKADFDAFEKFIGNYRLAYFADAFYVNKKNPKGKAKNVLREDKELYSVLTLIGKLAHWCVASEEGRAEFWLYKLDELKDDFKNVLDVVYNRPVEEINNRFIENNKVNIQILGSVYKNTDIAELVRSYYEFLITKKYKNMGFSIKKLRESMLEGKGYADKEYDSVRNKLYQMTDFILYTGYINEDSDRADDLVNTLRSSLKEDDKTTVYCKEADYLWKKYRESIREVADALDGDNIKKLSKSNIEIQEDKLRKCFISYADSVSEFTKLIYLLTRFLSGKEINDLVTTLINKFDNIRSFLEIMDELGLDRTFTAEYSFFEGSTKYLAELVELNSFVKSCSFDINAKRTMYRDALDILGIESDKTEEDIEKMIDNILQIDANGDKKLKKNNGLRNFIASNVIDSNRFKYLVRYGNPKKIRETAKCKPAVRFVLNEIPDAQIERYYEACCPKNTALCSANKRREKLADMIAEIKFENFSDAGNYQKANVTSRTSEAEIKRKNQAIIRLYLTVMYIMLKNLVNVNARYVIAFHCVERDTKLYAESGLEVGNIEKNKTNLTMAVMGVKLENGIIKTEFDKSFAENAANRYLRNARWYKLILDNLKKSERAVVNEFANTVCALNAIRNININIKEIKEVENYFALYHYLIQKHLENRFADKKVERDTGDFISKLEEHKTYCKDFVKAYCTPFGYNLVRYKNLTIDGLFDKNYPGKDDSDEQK
Assay: crRNA (strand 1, pre-loaded); Mg2+; 40 mM Tris-HCl pH 7.5, 150 mM NaCl, 6 mM MgCl2, 1 mM DTT, 0.1% Tween-20, 0.2 mg/ml BSA; 25 C; 10 min per concentration, then washed
Conditions: tags: His6-TwinStrep-SUMO cleaved; N-terminal SNAP kept (SNAP-Surface 488); label: 3' end held by stalled T7 RNA polymerase

B1: target 1 insG 3' of 9,insA 3' of 8 (mixed)
RNA 1: CACCCGUGCAAAAAUGCAGGGGUCUAAAACUGAGCGGAUAACCUCUCUAUGG
RNA 2: GGGAAUGGAUCCACAUCUACGAAUUCGUACCAUAGAGAGGUUAGUACCGCUCACCGAGAUCGGAAGAGCACACGU
  Kd: 19.6 ± 1 nM

B2: target 1 insG 3' of 22,insA 3' of 2 (mixed)
RNA 1: B1 RNA 1
RNA 2: GGGAAUGGAUCCACAUCUACGAAUUCGUACGCAUAGAGAGGUUAUCCGCUCAACCGAGAUCGGAAGAGCACACGU
  Kd: 28.8 ± 2.3 nM

B3: target 1 insA 3' of 15,insU 3' of 12 (mixed)
RNA 1: B1 RNA 1
RNA 2: B1 RNA 2 with G39A, U41G, A43U, G44U, U45A, A46U
  Kd: 4.9 ± 0.4 nM

B4: target 1 A1C,U10C (mixed)
RNA 1: B1 RNA 1
RNA 2: GGGAAUGGAUCCACAUCUACGAAUUCGUACCAUAGAGAGGUCAUCCGCUCCCCGAGAUCGGAAGAGCACACGU
  Kd: 22.2 ± 2.9 nM

B5: target 1 insU 3' of 16,insU 3' of 16 (mixed)
RNA 1: B1 RNA 1
RNA 2: B1 RNA 2 with G37U, A38U, G40A, U41G, U42G, A43U, G44U, U45A, A46U
  Kd: 38 ± 5 nM

B6: target 1 insU 3' of 9,insA 3' of 2 (mixed)
RNA 1: B1 RNA 1
RNA 2: B1 RNA 2 with G44U, A46C, C48G, G49C, C50U, U51C, C52A
  Kd: 19.8 ± 1.9 nM

B7: target 1 U3G,A9G (mixed)
RNA 1: B1 RNA 1
RNA 2: B4 RNA 2 with C42U, A43G, U49G, C51A
  Kd: 8.3 ± 0.8 nM

B8: target 1 A20U,C22A (mixed)
RNA 1: B1 RNA 1
RNA 2: B4 RNA 2 with C30A, A32U, C42U, C51A
  Kd: 23.9 ± 2.8 nM

B9: target 1 U10C (mixed)
RNA 1: B1 RNA 1
RNA 2: B4 RNA 2 with C51A
  Kd: 18 ± 1.1 nM

B10: target 1 G12U,G17C (mixed)
RNA 1: B1 RNA 1
RNA 2: B4 RNA 2 with G35C, G40U, C42U, C51A
  Kd: ~43 nM

B11: target 1 U8C,G13U (mixed)
RNA 1: B1 RNA 1
RNA 2: B4 RNA 2 with G39U, C42U, U44C, C51A
  Kd: 61 ± 11 nM

B12: target 1 G5A,G17U (mixed)
RNA 1: B1 RNA 1
RNA 2: B4 RNA 2 with G35U, C42U, G47A, C51A
  Kd: ~100 nM

B13: target 1 insC 3' of 15,insA 3' of 5 (mixed)
RNA 1: B1 RNA 1
RNA 2: B1 RNA 2 with A38C, G39A, U41G, A43U, G44A, A46C, C48G, G49A
  Kd: 6.6 ± 0.5 nM

B14: target 1 del9 (mixed)
RNA 1: B1 RNA 1
RNA 2: GGGAAUGGAUCCACAUCUACGAAUUCGUACCAUAGAGAGGUUUCCGCUCACCGAGAUCGGAAGAGCACACGU
  Kd: 11.5 ± 0.6 nM

B15: target 1 insC 3' of 22,insG 3' of 1 (mixed)
RNA 1: B1 RNA 1
RNA 2: B2 RNA 2 with G31C, A53G
  Kd: 15.3 ± 1.2 nM

B16: target 1 complement block 3-12 (mixed)
RNA 1: B1 RNA 1
RNA 2: GGGAAUGGAUCCACAUCUACGAAUUCGUACCAUAGAGAGCAAUAGGCGACACCGAGAUCGGAAGAGCACACGU
  Kd: 14.4 ± 0.5 nM

B17: target 1 insU 3' of 15,insU 3' of 2 (mixed)
RNA 1: B1 RNA 1
RNA 2: B2 RNA 2 with G31C, C32A, A33U, U34A, A35G, G36A, A37G, G38U, A52U
  Kd: 11.2 ± 0.6 nM

B18: target 1 insC 3' of 18,insU 3' of 7 (mixed)
RNA 1: B1 RNA 1
RNA 2: GGGAAUGGAUCCACAUCUACGAAUUCGUACCAUACGAGAGGUUAUCUCGCUCACCGAGAUCGGAAGAGCACACGU
  Kd: 67 ± 5 nM

B19: target 1 A1U,U10C (mixed)
RNA 1: B1 RNA 1
RNA 2: B4 RNA 2 with C51U
  Kd: 20 ± 1.7 nM

B20: target 1 A1G,U10C (mixed)
RNA 1: B1 RNA 1
RNA 2: B4 RNA 2 with C51G
  Kd: 17.3 ± 0.9 nM

B21: target 1 insC 3' of 20,insG 3' of 8 (mixed)
RNA 1: B1 RNA 1
RNA 2: B18 RNA 2 with U33C, A34U, C35A, C46G, U47C
  Kd: 8.6 ± 0.4 nM

B22: target 1 insG 3' of 11,insG 3' of 10 (mixed)
RNA 1: B1 RNA 1
RNA 2: B1 RNA 2 with U42G, A43U, U45A, A46U
  Kd: 30 ± 4 nM

B23: target 1 insG 3' of 22,insC 3' of 1 (mixed)
RNA 1: B1 RNA 1
RNA 2: B2 RNA 2 with A53C
  Kd: 25.6 ± 1.6 nM

B24: target 1 insG 3' of 6,insG 3' of 3 (mixed)
RNA 1: B1 RNA 1
RNA 2: B1 RNA 2 with G44U, U45C, A46C, C47G, C48G, G49C, C50U, U51G
  Kd: 7.3 ± 0.5 nM

B25: target 1 insC 3' of 22,insC 3' of 1 (mixed)
RNA 1: B1 RNA 1
RNA 2: B2 RNA 2 with G31C, A53C
  Kd: 17.2 ± 1 nM

B26: target 1 A9C,C22U (mixed)
RNA 1: B1 RNA 1
RNA 2: B4 RNA 2 with C30U, C42U, A43C, C51A
  Kd: 54 ± 12 nM

B27: target 1 insU 3' of 6,insG 3' of 4 (mixed)
RNA 1: B1 RNA 1
RNA 2: B1 RNA 2 with G44U, U45C, A46C, C47U, C48G, G49C, C50G
  Kd: 7.21 ± 0.28 nM

B28: target 1 U8C,U10A (mixed)
RNA 1: B1 RNA 1
RNA 2: B4 RNA 2 with C42A, U44C, C51A
  Kd: 11 ± 0.5 nM

B29: target 1 insU 3' of 9,insG 3' of 1 (mixed)
RNA 1: B1 RNA 1
RNA 2: B1 RNA 2 with G44U, A46C, C48G, G49C, C50U, U51C, C52A, A53G
  Kd: 18.9 ± 2.5 nM

B30: target 1 del13,del22 (mixed)
RNA 1: B1 RNA 1
RNA 2: GGGAAUGGAUCCACAUCUACGAAUUCGUACAUAGAGAGUUAUCCGCUCACCGAGAUCGGAAGAGCACACGU
  Kd: 30.9 ± 3 nM

B31: target 1 insG 3' of 19,insG 3' of 7 (mixed)
RNA 1: B1 RNA 1
RNA 2: B18 RNA 2 with A34G, C35A, U47G
  Kd: 46 ± 4 nM

B32: target 1 insA 3' of 7,insA 3' of 3 (mixed)
RNA 1: B1 RNA 1
RNA 2: B1 RNA 2 with G44U, U45C, C48G, G49C, C50U, U51A
  Kd: 5.5 ± 0.4 nM
